Measurements as given in patent publication US20090226432A1 (MICROMET, published 2009).

T1: soluble human CEA antigen (human, UniProt P06731 35-685, limits assumed, biotinylated with EZ-Link Sulfo NHS-LC-LC-Biotin in the ELISA (not in the cytotoxicity competition assays))
T1 construct: also called soluble CEA; soluble biotinylated human CEA (Abcam)
T1 sequence: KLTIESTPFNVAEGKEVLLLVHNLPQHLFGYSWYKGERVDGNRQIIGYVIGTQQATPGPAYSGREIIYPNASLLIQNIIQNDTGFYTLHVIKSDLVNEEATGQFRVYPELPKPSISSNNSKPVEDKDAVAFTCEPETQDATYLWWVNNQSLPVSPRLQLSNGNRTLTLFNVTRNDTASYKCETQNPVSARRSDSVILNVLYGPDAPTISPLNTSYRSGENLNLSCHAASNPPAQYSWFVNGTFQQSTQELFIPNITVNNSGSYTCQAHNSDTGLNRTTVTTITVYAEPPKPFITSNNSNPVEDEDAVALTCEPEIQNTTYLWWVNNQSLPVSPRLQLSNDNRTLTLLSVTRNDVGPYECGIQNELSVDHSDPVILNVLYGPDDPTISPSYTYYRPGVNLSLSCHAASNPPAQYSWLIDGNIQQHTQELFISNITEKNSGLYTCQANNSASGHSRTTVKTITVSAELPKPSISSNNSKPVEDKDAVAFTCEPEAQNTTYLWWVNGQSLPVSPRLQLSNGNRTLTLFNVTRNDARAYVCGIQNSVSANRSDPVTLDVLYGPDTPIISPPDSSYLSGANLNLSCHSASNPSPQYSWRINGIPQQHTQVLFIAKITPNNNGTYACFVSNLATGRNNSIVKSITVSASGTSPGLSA

B1: CEA I VHVL x SEQ ID NO. 77 VHVL (bispecific antibody)
chain: QVQLQESGGGLVQPGGSLRLSCATSGFTFTDYYMNWVRQPPGKALEWLGFIGNKANGYTTEYSASVKGRFTISRDKSQSILYLQMNTLRAEDSATYYCTRDRGLRFYFDYWGQGTTVTVSSGGGGSGGGGSGGGGSDIELTQSPAILSASPGEKVTMTCRASSSVTYIHWYQQKPGSSPKSWIYATSNLASGVPARFSGSGSGTSYSLTISRVEAEDAATYYCQHWSSKPPTFGGGTKLEIKSGGGGSDVQLVQSGAEVKKPGASVKVSCKASGYTFTRYTMHWVRQAPGQGLEWIGYINPSRGYTNYADSVKGRFTITTDKSTSTAYMELSSLRSEDTATYYCARYYDDHYCLDYWGQGTTVTVSSGEGTSTGSGGSGGSGGADDIVLTQSPATLSLSPGERATLSCRASQSVSYMNWYQQKPGKAPKRWIYDTSKVASGVPARFSGSGSGTDYSLTINSLEAEDAATYYCQQWSSNPLTFGGGTKVEIK
notes: Bispecific single chain antibody; also called CEA I-HL
B2: CEA II VHVL x SEQ ID NO. 77 VHVL (bispecific antibody)
chain: EVQLQQSGAELVEPGASVKLSCTASGFNIKDTYMHWVKQRPEQGLEWIGRIDPANGNSKYVPKFQGKATITADTSSNTAYLQLTSLTSEDTAVYYCAPFGYYVSDYAMAYWGQGTSVTVSSGGGGSGGGGSGGGGSDIVLTQSPASLAVSLGQRATMSCRAGESVDIFGVGFLHWYQQKPGQPPKLLIYRASNLESGIPVRFSGTGSRTDFTLIIDPVEADDVATYYCQQTNEDPYTFGGGTKLEIKSGGGGSDVQLVQSGAEVKKPGASVKVSCKASGYTFTRYTMHWVRQAPGQGLEWIGYINPSRGYTNYADSVKGRFTITTDKSTSTAYMELSSLRSEDTATYYCARYYDDHYCLDYWGQGTTVTVSSGEGTSTGSGGSGGSGGADDIVLTQSPATLSLSPGERATLSCRASQSVSYMNWYQQKPGKAPKRWIYDTSKVASGVPARFSGSGSGTDYSLTINSLEAEDAATYYCQQWSSNPLTFGGGTKVEIK
notes: Bispecific single chain antibody; anti-CEA part from mAb T84.66; also called CEA II HL
B3: CEA III VHVL x SEQ ID NO. 77 VHVL (bispecific antibody)
chain: QVKLQQSGAELVRSGTSVKLSCTASGFNIKDSYMHWLRQGPEQGLEWIGWIDPENGDTEYAPKFQGKATFTTDTSSNTAYLQLSSLTSEDTAVYYCNEGTPTGPYYFDYWGQGTTVTVSSGGGGSGGGGSGGGGSENVLTQSPAIMSASPGEKVTITCSASSSVSYMHWFQQKPGTSPKLWIYSTSNLASGVPARFSGSGSGTSYSLTISRMEAEDAATYYCQQRSSYPLTFGAGTKLELKSGGGGSDVQLVQSGAEVKKPGASVKVSCKASGYTFTRYTMHWVRQAPGQGLEWIGYINPSRGYTNYADSVKGRFTITTDKSTSTAYMELSSLRSEDTATYYCARYYDDHYCLDYWGQGTTVTVSSGEGTSTGSGGSGGSGGADDIVLTQSPATLSLSPGERATLSCRASQSVSYMNWYQQKPGKAPKRWIYDTSKVASGVPARFSGSGSGTDYSLTINSLEAEDAATYYCQQWSSNPLTFGGGTKVEIK
notes: Bispecific single chain antibody; anti-CEA part from mAb MFE-23; also called CEA III-HL
B4: CEA III VLVH x SEQ ID NO. 77 VHVL (bispecific antibody)
chain: ENVLTQSPAIMSASPGEKVTITCSASSSVSYMHWFQQKPGTSPKLWIYSTSNLASGVPARFSGSGSGTSYSLTISRMEAEDAATYYCQQRSSYPLTFGAGTKLELKGGGGSGGGGSGGGGSQVKLQQSGAELVRSGTSVKLSCTASGFNIKDSYMHWLRQGPEQGLEWIGWIDPENGDTEYAPKFQGKATFTTDTSSNTAYLQLSSLTSEDTAVYYCNEGTPTGPYYFDYWGQGTTVTVSSGGGGSDVQLVQSGAEVKKPGASVKVSCKASGYTFTRYTMHWVRQAPGQGLEWIGYINPSRGYTNYADSVKGRFTITTDKSTSTAYMELSSLRSEDTATYYCARYYDDHYCLDYWGQGTTVTVSSGEGTSTGSGGSGGSGGADDIVLTQSPATLSLSPGERATLSCRASQSVSYMNWYQQKPGKAPKRWIYDTSKVASGVPARFSGSGSGTDYSLTINSLEAEDAATYYCQQWSSNPLTFGGGTKVEIK
notes: Bispecific single chain antibody; anti-CEA part from mAb MFE-23; also called CEA III-LH
B5: CEA I VLVH x SEQ ID NO. 77 VHVL (bispecific antibody)
chain: DIELTQSPAILSASPGEKVTMTCRASSSVTYIHWYQQKPGSSPKSWIYATSNLASGVPARFSGSGSGTSYSLTISRVEAEDAATYYCQHWSSKPPTFGGGTKLEIKGGGGSGGGGSGGGGSQVQLQESGGGLVQPGGSLRLSCATSGFTFTDYYMNWVRQPPGKALEWLGFIGNKANGYTTEYSASVKGRFTISRDKSQSILYLQMNTLRAEDSATYYCTRDRGLRFYFDYWGQGTTVTVSSGGGGSDVQLVQSGAEVKKPGASVKVSCKASGYTFTRYTMHWVRQAPGQGLEWIGYINPSRGYTNYADSVKGRFTITTDKSTSTAYMELSSLRSEDTATYYCARYYDDHYCLDYWGQGTTVTVSSGEGTSTGSGGSGGSGGADDIVLTQSPATLSLSPGERATLSCRASQSVSYMNWYQQKPGKAPKRWIYDTSKVASGVPARFSGSGSGTDYSLTINSLEAEDAATYYCQQWSSNPLTFGGGTKVEIK
notes: Bispecific single chain antibody; anti-CEA part from murine mAb A5B7; also called CEA I-LH
B6: SEQ ID NO. 77 VHVL x CEA I VHVL (bispecific antibody)
chain: DVQLVQSGAEVKKPGASVKVSCKASGYTFTRYTMHWVRQAPGQGLEWIGYINPSRGYTNYADSVKGRFTITTDKSTSTAYMELSSLRSEDTATYYCARYYDDHYCLDYWGQGTTVTVSSGEGTSTGSGGSGGSGGADDIVLTQSPATLSLSPGERATLSCRASQSVSYMNWYQQKPGKAPKRWIYDTSKVASGVPARFSGSGSGTDYSLTINSLEAEDAATYYCQQWSSNPLTFGGGTKVEIKSGGGGSQVQLQESGGGLVQPGGSLRLSCATSGFTFTDYYMNWVRQPPGKALEWLGFIGNKANGYTTEYSASVKGRFTISRDKSQSILYLQMNTLRAEDSATYYCTRDRGLRFYFDYWGQGTTVTVSSGGGGSGGGGSGGGGSDIELTQSPAILSASPGEKVTMTCRASSSVTYIHWYQQKPGSSPKSWIYATSNLASGVPARFSGSGSGTSYSLTISRVEAEDAATYYCQHWSSKPPTFGGGTKLEIK
notes: Bispecific single chain antibody, anti-CD3 part N-terminal, anti-CEA part from mAb A5B7
B7: SEQ ID NO. 77 VHVL x CEA I VLVH (bispecific antibody)
chain: DVQLVQSGAEVKKPGASVKVSCKASGYTFTRYTMHWVRQAPGQGLEWIGYINPSRGYTNYADSVKGRFTITTDKSTSTAYMELSSLRSEDTATYYCARYYDDHYCLDYWGQGTTVTVSSGEGTSTGSGGSGGSGGADDIVLTQSPATLSLSPGERATLSCRASQSVSYMNWYQQKPGKAPKRWIYDTSKVASGVPARFSGSGSGTDYSLTINSLEAEDAATYYCQQWSSNPLTFGGGTKVEIKSGGGGSDIELTQSPAILSASPGEKVTMTCRASSSVTYIHWYQQKPGSSPKSWIYATSNLASGVPARFSGSGSGTSYSLTISRVEAEDAATYYCQHWSSKPPTFGGGTKLEIKGGGGSGGGGSGGGGSQVQLQESGGGLVQPGGSLRLSCATSGFTFTDYYMNWVRQPPGKALEWLGFIGNKANGYTTEYSASVKGRFTISRDKSQSILYLQMNTLRAEDSATYYCTRDRGLRFYFDYWGQGTTVTVSS
notes: as for B6

Key:
[1] = molecular target: T1, soluble human CEA antigen; test: direct ELISA, biotinylated soluble CEA on streptavidin plate; 0.5 and 5 ug/ml
Experimental: The direct ELISA to determine the specificity of CEA×CD3 bispecific single chain antibody against soluble human CEA was carried out according to standard procedures. Briefly, 50 μl/well PBS or soluble biotinylated human CEA (Abcam; 5 μg/ml in 1×PBS) were immobilized on a 96-well streptavidin-coated ELISA plate (Nunc) by incubating at 4° C. for about 16 hours. After washing with 200 μl water per well 200 μl of blocking solution (PBS/3% BSA) was added. After blocking for 1 h at room temperature the blocking solution was removed. All subsequent washing (200 μl/well of 1×PBS/0.05% (v/v) Tween20) and incubation steps were performed at room temperature. After washing once, the CEAI VHVL×SEQ ID NO.77 VHVL (SEQ ID NO. 8; anti-CEA part derived from mAb A5B7), CEAII VHVL×SEQ ID NO.77 VHVL (SEQ ID NO. 10; anti-CEA part derived from mAb T84.66), and CEAIII VHVL×SEQ ID NO.77 VHVL (SEQ ID NO. 14; anti-CEA part derived from mAb MFE-23) bispecific single chain antibodies, and mouse monoclonal antibody CEA/CD66 Ab-3 (Col-1; Dunn) were incubated in different concentrations (0.5 μg/ml and 5 μg/ml in 1×PBS; 50 μl/well) for 1 hour. 1×PBS (50 μl/well) was added as a control for unspecific binding. 3 washing steps were followed by adding 50 μl/well Penta-His IgG (Qiagen; 2 μg/ml in 1×PBS) for detection of the His-tagged bispecific single chain antibodies. Subsequently, the wells were washed 3 times and incubated with 50 μl of a horseradish peroxidase-labelled goat anti-mouse Fc gamma-specific antibody (Jackson ImmuneResearch; 1:1000 in 1×PBS) for 1 hour. After washing 3 times the ELISA was developed by adding ABTS substrate solution (Roche) and the absorbance was measured at a wavelength of 405 nm.

[2] = molecular target: T1, soluble human CEA antigen; test: refers to Examples 2 and 3 (flow cytometry, ELISA)
[3] = molecular target: T1, soluble human CEA antigen; test: refers to the ELISA of FIG. 2

Row | Binder | binding result [1] | binding result [3] | other results
1 | B1 | binds |  | 
2 | B2 | binds |  | 
3 | B3 | binds |  | 
4 | B4 |  |  | binding result [2]: binds
5 | B5 |  | binds | 
6 | B6 |  | binds | 
7 | B7 |  | binds | 
